In US20060234940A1 (OSI PHARMACEUTICALS, published 2006):
Where no end group is shown, it is not given here. The star is where a group is joined. Thia = thiazolidide, C1CN(*)CS1

Legend:
DP IV = assay: photometric assay, competition with the standard substrate GP-4-nitroanilide; source of DP IV not stated
[1] = target: T1, porcine kidney DP IV, wild type (porcine, UniProt P22411 38-766, natively glycosylated (Asn279 among others, as seen in the crystal)); assay: MALDI-TOF MS, inhibition of DP IV-catalyzed truncation of the substrate GIP after preincubation with TFTSDY
T1 construct: In the crystal a 2-2-2 symmetric tetramer (dimer of dimers); also called p wt DP IV; p wt

[2] = target: T1, porcine kidney DP IV, wild type; assay: MALDI-TOF MS, inhibition of DP IV-catalyzed truncation of the substrate NPY after preincubation with TFTSDY
[3] = target: T1, porcine kidney DP IV, wild type; assay: MALDI-TOF MS, inhibition of DP IV-catalyzed truncation of the substrate GLP-1 after preincubation with TFTSDY
[4] = target: T1, porcine kidney DP IV, wild type; assay: MALDI-TOF MS, inhibition of DP IV-catalyzed truncation of the substrate glucagon after preincubation with TFTSDY
[5] = target: T1, porcine kidney DP IV, wild type; assay: MALDI-TOF MS, inhibition of DP IV-catalyzed truncation of the substrate RANTES1-15 after preincubation with TFTSDY
[6] = target: T2, recombinant human DP IV, mutation R560A (human, UniProt P27487 37-766); assay: photometric assay, competition with the standard substrate GP-4NA
T2 construct: range 37-766; Same Pichia construct as the wild type, single mutation by site-directed mutagenesis; also called mu 15 DP IV; mu 15
Method: (§1) In order to measure the inhibition constant Kᵢ a photometric assay was used The peptides were measured as competitors of the standard substrate GP-4-Nitroanilide. Three different substrate concentrations (0.4 mM to 0.05 mM) were combined with 8 different competitor concentrations (0.5 mM to 2 μM). […] Experiments were carried out under standard conditions: 30° C. in pH 7.6 40 mM HEPES (Sigma-Aldrich) buffer. Nitroaniline production was monitored using a HTS 7000+ microplate reader (PerkinElmer, Überlingen, Germany).

[7] = target: T3, recombinant human DP IV, mutation W629A (human, UniProt P27487 37-766); assay: as above
T3 construct: range 37-766; Same Pichia construct as the wild type, single mutation by site-directed mutagenesis; also called mu 16 DP IV; mu 16
Method: as §1

[8] = target: T1, porcine kidney DP IV, wild type; assay: as above
Method: as §1

T1 sequence (P22411 38-766): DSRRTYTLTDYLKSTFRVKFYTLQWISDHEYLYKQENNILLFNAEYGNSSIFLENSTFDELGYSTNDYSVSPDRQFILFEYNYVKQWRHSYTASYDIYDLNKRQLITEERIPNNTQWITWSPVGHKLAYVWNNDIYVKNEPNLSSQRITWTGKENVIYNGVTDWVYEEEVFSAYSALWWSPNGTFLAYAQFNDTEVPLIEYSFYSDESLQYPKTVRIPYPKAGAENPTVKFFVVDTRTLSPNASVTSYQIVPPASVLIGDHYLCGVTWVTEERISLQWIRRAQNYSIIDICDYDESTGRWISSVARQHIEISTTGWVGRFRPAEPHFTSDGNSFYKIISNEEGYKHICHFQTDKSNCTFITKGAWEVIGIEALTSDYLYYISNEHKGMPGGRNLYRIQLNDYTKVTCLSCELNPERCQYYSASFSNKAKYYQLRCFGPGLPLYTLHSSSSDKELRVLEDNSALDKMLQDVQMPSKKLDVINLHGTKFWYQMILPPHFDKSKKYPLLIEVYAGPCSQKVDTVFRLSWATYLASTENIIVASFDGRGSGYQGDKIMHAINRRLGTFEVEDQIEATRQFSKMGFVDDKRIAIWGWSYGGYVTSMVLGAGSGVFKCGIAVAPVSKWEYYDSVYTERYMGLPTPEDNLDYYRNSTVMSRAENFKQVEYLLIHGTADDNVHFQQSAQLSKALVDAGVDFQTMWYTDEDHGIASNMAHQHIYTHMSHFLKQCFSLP
T2 sequence (P27487 other isoform, or with tags, fused parts or gaps R560A R560A limits assumed): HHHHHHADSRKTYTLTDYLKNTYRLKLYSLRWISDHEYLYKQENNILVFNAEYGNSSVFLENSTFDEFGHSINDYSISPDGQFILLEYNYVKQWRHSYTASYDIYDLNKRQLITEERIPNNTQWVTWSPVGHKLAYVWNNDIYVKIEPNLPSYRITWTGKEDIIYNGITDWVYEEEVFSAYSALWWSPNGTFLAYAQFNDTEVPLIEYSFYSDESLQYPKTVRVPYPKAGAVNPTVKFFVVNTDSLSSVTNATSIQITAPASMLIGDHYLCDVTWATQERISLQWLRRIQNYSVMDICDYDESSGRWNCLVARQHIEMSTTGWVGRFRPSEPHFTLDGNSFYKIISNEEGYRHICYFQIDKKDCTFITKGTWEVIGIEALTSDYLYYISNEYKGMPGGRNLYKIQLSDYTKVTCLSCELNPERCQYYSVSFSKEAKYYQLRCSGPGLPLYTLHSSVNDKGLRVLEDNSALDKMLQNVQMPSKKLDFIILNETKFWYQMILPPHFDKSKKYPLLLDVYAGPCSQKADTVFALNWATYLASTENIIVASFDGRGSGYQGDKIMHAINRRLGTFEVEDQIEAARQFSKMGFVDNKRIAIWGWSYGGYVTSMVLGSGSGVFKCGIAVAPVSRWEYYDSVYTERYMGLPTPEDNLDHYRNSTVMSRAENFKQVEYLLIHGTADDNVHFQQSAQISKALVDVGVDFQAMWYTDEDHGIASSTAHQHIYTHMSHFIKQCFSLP
T3 sequence (P27487 other isoform, or with tags, fused parts or gaps W629A W629A limits assumed): as the sequence (P27487 other isoform, or with tags, fused parts or gaps R560A R560A limits assumed) above, with A530R, W599A counted along it
Sequence of DP IV (chain, as listed by the source): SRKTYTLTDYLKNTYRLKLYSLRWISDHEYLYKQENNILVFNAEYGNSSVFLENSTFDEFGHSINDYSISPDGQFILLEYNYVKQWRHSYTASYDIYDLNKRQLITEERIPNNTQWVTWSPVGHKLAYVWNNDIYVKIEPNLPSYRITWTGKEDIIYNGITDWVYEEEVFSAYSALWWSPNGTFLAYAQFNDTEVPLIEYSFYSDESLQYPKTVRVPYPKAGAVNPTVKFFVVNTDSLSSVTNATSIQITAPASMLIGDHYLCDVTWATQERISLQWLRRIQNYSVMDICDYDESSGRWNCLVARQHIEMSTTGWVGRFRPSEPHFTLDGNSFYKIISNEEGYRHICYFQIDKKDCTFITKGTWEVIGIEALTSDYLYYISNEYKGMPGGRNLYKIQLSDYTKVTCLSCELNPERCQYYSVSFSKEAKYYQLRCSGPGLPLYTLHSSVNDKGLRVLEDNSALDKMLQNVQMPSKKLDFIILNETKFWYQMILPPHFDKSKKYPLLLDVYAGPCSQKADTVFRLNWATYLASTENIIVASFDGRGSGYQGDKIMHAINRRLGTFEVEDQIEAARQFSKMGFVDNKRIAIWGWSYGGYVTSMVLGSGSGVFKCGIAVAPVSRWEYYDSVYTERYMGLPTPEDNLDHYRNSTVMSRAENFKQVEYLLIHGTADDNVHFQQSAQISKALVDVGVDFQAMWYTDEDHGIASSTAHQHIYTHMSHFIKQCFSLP

B1: hexapeptide TFTSDY (peptide)
peptide: TFTSDY
notes: also called glucagon5-10; T(5)-F-T-S-D-Y
Ki (DP IV): 710 µM | Ki [1]: 65.9 µM | Ki [2]: 17.2 µM | Ki [3]: 13.7 µM | Ki [4]: 6.8 µM | Ki [5]: 12300 µM

RRLSYSRRRFE-Thia (also: linkage of decapeptide to Glu not explained) [Transp 01 (RRLSYSRRRF-E-Thia)]
Ki [6]: 0.0769 µM | Ki [7]: 0.0855 µM

YAESTF-NH2 [YAESTF amide]
Ki [6]: 1.14 µM | Ki [7]: 1.06 µM

HSDGIFTDSYSRYRKQMAVKKYLAAVL (peptide, UniProt P18509 132-158, looked up, ends and bridges not checked, range 132-158; also called PACAP(1-27)) [PACAP-27]
Ki [8]: 54.3 µM
